Laboratory results: US20230212587A1, “Mutant Hydroxyphenylpyruvate Dioxygenase Polypeptide, Encoding Gene Thereof and Use Therefor” (Beijing Dabeinong Biotechnology Co., Ltd., priority 2019, published 2023)

Tested on: Arabidopsis thaliana T1 plants
Assay: Topramezone tolerance of transgenic Arabidopsis thaliana T1 plants (pesticide damage grade by bleached leaf area, score, resistance evaluation)
Assay type: in vivo
Details: HPPDs from different species, 7 DAT; for Classification and statistics of pesticide damage grade Grade 0 / Classification and statistics of pesticide damage grade Grade 1 / Classification and statistics of pesticide damage grade Grade 2 / Classification and statistics of pesticide damage grade Grade 3: number of plants (of 16) in this grade; for Scores: score for pesticide damage 0-100
Procedure, shortened: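 Eighteen days after sowing, wild-type and HPPD-transgenic T1 Arabidopsis receive a topramezone spray at 1×, 2× or 4× field rate (25–100 g ai/ha) or water. Seven days later each plant is graded by its proportion of bleached leaf area.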

Molecule	Classification and statistics of pesticide damage grade Grade 0 (topramezone 25 g ai/ha (1x))	Classification and statistics of pesticide damage grade Grade 1 (topramezone 25 g ai/ha (1x))	Classification and statistics of pesticide damage grade Grade 2 (topramezone 25 g ai/ha (1x))	Classification and statistics of pesticide damage grade Grade 3 (topramezone 25 g ai/ha (1x))	Classification and statistics of pesticide damage grade Grade 0 (topramezone 100 g ai/ha (4x))	Classification and statistics of pesticide damage grade Grade 1 (topramezone 100 g ai/ha (4x))	Classification and statistics of pesticide damage grade Grade 2 (topramezone 100 g ai/ha (4x))	Classification and statistics of pesticide damage grade Grade 3 (topramezone 100 g ai/ha (4x))	Scores (topramezone 25 g ai/ha (1x))	Scores (topramezone 100 g ai/ha (4x))	Resistance evaluation (topramezone 25 g ai/ha (1x))	Resistance evaluation (topramezone 100 g ai/ha (4x))
SiHPPD-02: native Setaria italica HPPD, SEQ ID NO: 57 (protein, listed as Setaria italica, SiHPPD Amino Acid Sequence) MPPTPTPAAAAPGAAAAPAAGDQAAFRLVGHRGFVRVNPRSDRFHTLSFHHVELWCADATSAAGRFSFGLGAPLAARSDLSTGNSAHASLLLRSGSLAFLFTAPYAHGVDAATASLPSFSAPAARSFAADHGLAVRAIGLRVADAEDAFRASVAAGARPAFKPVELGLGFRLAEVELYGDVVLRYVSYPDAEDAPFLPGFENVNNPGALNYGLRRFDHIVGNVPELAPVAAYVAGFTGFHEFAEFTAEDVGTAESGLNSMVLANNSETVLIPLNEPVHGTKRRSQIQTFLDHNGGPGVQHIALASDDVLRTLREMQARSAMGGFEFMAAPPPDYYEGVRRRAGDVLSEAQIKECQELGVLVDRDDQGVLLQIFTKPVGDRQTLFLEIIQRIGCMEKDEQGQEYQKGGCGGFGKGNFSQLFKSIEDYEKSLESKQAAAVQGS	0	0	0	16	0	0	0	16	100	100	non-resistant (non-resistant plants (scores 68-100))	non-resistant (non-resistant plants (scores 68-100))
SiHPPDm-F372A-02: Setaria italica HPPD mutant F372A, SEQ ID NO: 60 (protein, SiHPPDm-F372A Amino Acid Sequence) MPPTPTPAAAAPGAAAAPAAGDQAAFRLVGHRGFVRVNPRSDRFHTLSFHHVELWCADATSAAGRFSFGLGAPLAARSDLSTGNSAHASLLLRSGSLAFLFTAPYAHGVDAATASLPSFSAPAARSFAADHGLAVRAIGLRVADAEDAFRASVAAGARPAFKPVELGLGFRLAEVELYGDVVLRYVSYPDAEDAPFLPGFENVNNPGALNYGLRRFDHIVGNVPELAPVAAYVAGFTGFHEFAEFTAEDVGTAESGLNSMVLANNSETVLIPLNEPVHGTKRRSQIQTFLDHNGGPGVQHIALASDDVLRTLREMQARSAMGGFEFMAAPPPDYYEGVRRRAGDVLSEAQIKECQELGVLVDRDDQGVLLQIATKPVGDRQTLFLEIIQRIGCMEKDEQGQEYQKGGCGGFGKGNFSQLFKSIEDYEKSLESKQAAAVQGS	13	2	1	0	6	8	2	0	8	25	highly resistant (highly resistant plants (scores 0-15))	moderately resistant (moderately resistant plants (scores 16-33))
HvHPPD-02: native Hordeum vulgare HPPD, SEQ ID NO: 51 (protein, Hordeum vulgare; HvHPPD Amino Acid Sequence) MPPTPTTPAATGAAAAVTPEHARPHRMVRFNPRSDRFHTLSFHHVEFWCADAASAAGRFAFALGAPLAARSDLSTGNSAHASQLLRSGSLAFLFTAPYANGCDAATASLPSFSADAARRFSADHGIAVRSVALRVADAAEAFRASRRRGARPAFAPVDLGRGFAFAEVELYGDVVLRFVSHPDGTDVPFLPGFEGVTNPDAVDYGLTRFDHVVGNVPELAPAAAYIAGFTGFHEFAEFTAEDVGTTESGLNSVVLANNSEGVLLPLNEPVHGTKRRSQIQTFLEHHGGPGVQHIAVASSDVLRTLRKMRARSAMGGFDFLPPPLPKYYEGVRRLAGDVLSEAQIKECQELGVLVDRDDQGVLLQIFTKPVGDRPTLFLEMIQRIGCMEKDERGEEYQKGGCGGFGKGNFSELFKSIEDYEKSLEAKQSAAVQGS	0	0	0	16	0	0	0	16	100	100	non-resistant (non-resistant plants (scores 68-100))	non-resistant (non-resistant plants (scores 68-100))
HvHPPDm-F372A-02: Hordeum vulgare HPPD mutant F372A, SEQ ID NO: 54 (protein, HvHPPDm-F372A Amino Acid Sequence) MPPTPTTPAATGAAAAVTPEHARPHRMVRFNPRSDRFHTLSFHHVEFWCADAASAAGRFAFALGAPLAARSDLSTGNSAHASQLLRSGSLAFLFTAPYANGCDAATASLPSFSADAARRFSADHGIAVRSVALRVADAAEAFRASRRRGARPAFAPVDLGRGFAFAEVELYGDVVLRFVSHPDGTDVPFLPGFEGVTNPDAVDYGLTRFDHVVGNVPELAPAAAYIAGFTGFHEFAEFTAEDVGTTESGLNSVVLANNSEGVLLPLNEPVHGTKRRSQIQTFLEHHGGPGVQHIAVASSDVLRTLRKMRARSAMGGFDFLPPPLPKYYEGVRRLAGDVLSEAQIKECQELGVLVDRDDQGVLLQIATKPVGDRPTLFLEMIQRIGCMEKDERGEEYQKGGCGGFGKGNFSELFKSIEDYEKSLEAKQSAAVQGS	15	1	0	0	8	8	0	0	2	17	highly resistant (highly resistant plants (scores 0-15))	moderately resistant (moderately resistant plants (scores 16-33))
BdHPPD-02: native Brachypodium distachyon HPPD, SEQ ID NO: 45 (protein, Brachypodium distachyon; BdHPPD Amino Acid Sequence) MPPPATTAAPAAAAVTPEHARPPRRVARVNPRSDRFSALSFHHVELWCADAASAAGRFSFALGAPPAARSDLSTGNSAHASILLRSGSLAFLFTAPYAPSPASDSAASIPSFSASAARQFTADHGGLAVRAVALRVSSASDAFHASVSAGARPSFPPADLGQGFALAEVELYGDVVLRFISHPDENTEIPFLPGFESVSNPGASTYGLTRFDHVVGNVPSLAPVAAYIAGFTGFHEFAEFTAEDVGTADSGLNSVVLANNSERVLLPLNEPVHGTKRRSQIQTYLDHHGGPGVQHIALASDDVLRTLREMRARSAMGGFEFLAPPPPNYYDGVRRRAGDVLSEAQIKECQELGVLVDRDDQGVLLQIFTKPVGDRPTLFLEMIQRIGCMEKDEIGQEQQKGGCGGFGKGNFSELFRSIEEYEKSLEAKQSAVVQES	0	0	0	16	0	0	0	16	100	100	non-resistant (non-resistant plants (scores 68-100))	non-resistant (non-resistant plants (scores 68-100))
BdHPPDm-F372A-02: Brachypodium distachyon HPPD mutant F372A, SEQ ID NO: 48 (protein, BdHPPDm-F372A Amino Acid Sequence) MPPPATTAAPAAAAVTPEHARPPRRVARVNPRSDRFSALSFHHVELWCADAASAAGRFSFALGAPPAARSDLSTGNSAHASILLRSGSLAFLFTAPYAPSPASDSAASIPSFSASAARQFTADHGGLAVRAVALRVSSASDAFHASVSAGARPSFPPADLGQGFALAEVELYGDVVLRFISHPDENTEIPFLPGFESVSNPGASTYGLTRFDHVVGNVPSLAPVAAYIAGFTGFHEFAEFTAEDVGTADSGLNSVVLANNSERVLLPLNEPVHGTKRRSQIQTYLDHHGGPGVQHIALASDDVLRTLREMRARSAMGGFEFLAPPPPNYYDGVRRRAGDVLSEAQIKECQELGVLVDRDDQGVLLQIATKPVGDRPTLFLEMIQRIGCMEKDEIGQEQQKGGCGGFGKGNFSELFRSIEEYEKSLEAKQSAVVQES	16	0	0	0	6	10	0	0	0	21	highly resistant (highly resistant plants (scores 0-15))	moderately resistant (moderately resistant plants (scores 16-33))
